Measurements: patent publication US5910570A, “Cloned DNA encoding a UDP-GalNAc: polypeptide N-acetylgalactosaminy-ltransferase” (Pharmacia & Upjohn Company, priority 1997, dated 1999)

T1: bovine colostrum GalNAc-transferase (Bos taurus, UniProt Q07537)
T1 construct: from tissue; host or cells: bovine colostrum
T1 sequence (Q07537 41-559 limits assumed): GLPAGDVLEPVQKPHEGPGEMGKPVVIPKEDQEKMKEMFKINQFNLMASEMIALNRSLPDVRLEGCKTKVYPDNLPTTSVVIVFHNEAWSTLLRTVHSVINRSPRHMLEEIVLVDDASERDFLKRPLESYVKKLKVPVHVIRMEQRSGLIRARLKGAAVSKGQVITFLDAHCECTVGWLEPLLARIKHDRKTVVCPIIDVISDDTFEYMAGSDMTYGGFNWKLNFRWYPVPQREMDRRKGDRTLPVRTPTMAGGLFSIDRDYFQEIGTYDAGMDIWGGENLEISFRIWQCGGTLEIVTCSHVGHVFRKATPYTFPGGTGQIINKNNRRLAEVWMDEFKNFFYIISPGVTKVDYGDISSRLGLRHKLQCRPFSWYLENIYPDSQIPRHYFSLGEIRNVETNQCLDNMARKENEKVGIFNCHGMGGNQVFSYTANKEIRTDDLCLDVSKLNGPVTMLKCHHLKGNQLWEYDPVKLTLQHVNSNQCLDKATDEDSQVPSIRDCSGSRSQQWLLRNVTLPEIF

B1: Myelin basic protein: efficient acceptor for GalNAc-transferase, included as a positive control (protein, UniProt P02686 1-304, looked up)
Myelin basic protein: MGNHAGKRELNAEKASTNSETNRGESEKKRNLGELSRTTSEDNEVFGEADANQNNGTSSQDTAVTDSKRTADPKNAWQDAHPADPGSRPHLIRLFSRDAPGREDNTFKDRPSESDELQTIQEDSAATSESLDVMASQKRPSQRHGSKYLATASTMDHARHGFLPRHRDTGILDSIGRFFGGDRGAPKRGSGKDSHHPARTAHYGSLPQKSHGRTQDENPVVHFFKNIVTPRTPPPSQGKGRGLSLSRFSWGAEGQRPGFGYGGRASDYKSAHKGFKGVDAQGTLSKIFKLGGRDSRSGSPMARR
B2: Subtilisin: bacterial protein tested as acceptor (protein, UniProt P00782 108-382, looked up)
Subtilisin BPN': AQSVPYGVSQIKAPALHSQGYTGSNVKVAVIDSGIDSSHPDLKVAGGASMVPSETNPFQDNNSHGTHVAGTVAALNNSIGVLGVAPSASLYAVKVLGADGSGQYSWIINGIEWAIANNMDVINMSLGGPSGSAALKAAVDKAVASGVVVVAAAGNEGTSGSSSTVGYPGKYPSVIAVGAVDSSNQRASFSSVGPELDVMAPGVSIQSTLPGNKYGAYNGTSMASPHVAGAAALILSKHPNWTNTQVRSSLENTTTKLGDSFYYGKGLINVQAAAQ
B3: GalNAcTs: secreted, soluble recombinant form of bovine GalNAc-transferase expressed in Sf9 cells (protein)
chain: DPSPALEPVQKPHEGPGEMGKPVVIPKEDQEKMKEMFKINQFNLMASEMIALNRSLPDVRLEGCKTKVYPDNLPTTSVVIVFHNEAWSTLLRTVHSVINRSPRHMLEEIVLVDDASERDFLKRPLESYVKKLKVPVHVIRMEQRSGLIRARLKGAAVSKGQVITFLDAHCECTVGWLEPLLARIKHDRKTVVCPIIDVISDDTFEYMAGSDMTYGGFNWKLNFRWYPVPQREMDRRKGDRTLPVRTPTMAGGLFSIDRDYFQEIGTYDAGMDIWGGENLEISFRIWQCGGTLEIVTCSHVGHVFRKATPYTFPGGTGQIINKNNRRLAEVWMDEFKNFFYIISPGVTKVDYGDISSRLGLRHKLQCRPFSWYLENIYPDSQIPRHYFSLGEIRNVETNQCLDNMARKENEKVGIFNCHGMGGNQVFSYTANKEIRTDDLCLDVSKLNGPVTMLKCHHLKGNQLWEYDPVKLTLQHVNSNQCLDKATDEDSQVPSIRDCSGSRSQQWLLRNVTLPEIF
B4: Bovine rhodanese: cytoplasmic protein with predicted glycosylation sites, tested as acceptor (protein)
chain: VHQVLYRALVSTKWLAESVRAGKVGPGLRVLDASWYSPGTREARKEYLERHVPGASFFDIEECRDKASPYEVMLPSEAGFADYVGSLGISNDTHVVVYDGDDLGSFYAPRVWWMFRVFGHRTVSVLNGGFRNWLKEGHPVTSEPSRPEPAIFKATLNRSLLKTYEQVLENLESKRFQLVDSRAQGRYLGTQPEPDAVGLDSGHIRGSVNMPFMNFLTEDGFEKSPEELRAMFEAKKVDLTKPLIATCRKGVTACHIALAAYLCGKPDVAIYDGSWFEWFHRAPPETWVSQGKGGKA

Key:
[1] = molecular target: T1, bovine colostrum GalNAc-transferase; test: Transfer of N-acetylgalactosamine to protein acceptors; assay type: biochemical; conditions: for Product formed, Native: native acceptor 65 μM; for Product formed, Native / Product formed, Reduced and carboxymethylated: enzyme approx. 65 mU/ml; for Product formed, Reduced and carboxymethylated: reduced and carboxymethylated acceptor 65 μM
Experimental: The above conclusions and the predictions of the specificity algorithm are validated experimentally by studying the ability of bovine colostrum GalNAc-transferase to transfer N-acetylgalactosamine to a variety of acceptors, both native proteins and synthetic acceptor peptides. The transfer of N-acetylgalactosamine to protein acceptors is assayed as described by Elhammer and Kornfeld, 1986, with minor modifications. The concentration of UDP-GalNAc is saturating in all assays; a Km of 8 μM is reported for bovine colostrum GalNAc-transferase (Elhammer and Kornfeld, 1986).
The transfer of N-acetylgalactosamine to protein acceptors was assayed
under standard conditions (see Material and Methods). The acceptor
concentration was 65 μM, the enzyme concentration approximately 65
mU/ml and assay time was 60 minutes. The transfer to both native and
reduced-carboxymethylated acceptors was assayed.

bovine apomucin = test: Specific activity of the purified enzyme preparation using bovine apomucin as acceptor; assay type: biochemical
Experimental: The standard assay for UDP-GalNAc:polypeptide, N-acetylgalactosaminyltransferase activity during purification contained the following components in a final volume of 80 μl: 50 mM Imidazole pH 7.2, 10 mM MnCl2, 0.5% Triton X-100, 15 μM UDP-GalNAc, UDP[1-^3 H-]GalNAc (27,000 cpm/assay), 0.15 mg/ml apomucin and varying amounts of enzyme (see individual experiments). The reaction mixture is incubated at 37° C. for 5-10 minutes (see individual experiments) and the reaction product is TCA precipitated and radioactivity measured as described. Assays for activity in lysates from Spodoptera frugiperda cell line 9 (hereinafter referred to as Sf9 cells) are carried out as described by Thomsen et al., (1990).

Row | Molecule | Product formed, column Reduced and carboxymethylated (acceptor not reduced and carboxymethylated in this experiment) ([1]; footnote a: not reduced and carboxymethylated, 65 μM, 60 minutes) | Product formed, Native ([1]; 60 minutes) | transfer rate, times slower as compared to myelin basic protein ([1]; denatured (reduced and carboxymethylated) acceptor) | Product formed, Reduced and carboxymethylated ([1]; 60 minutes) | specific activity of the purified enzyme preparation (bovine apomucin)
1 | B1 | 21.3 nmol/min/mg | 22.2 nmol/min/mg |  |  | 
2 | B2 |  | < 0.1 nmol/min/mg | 35 times | 0.6 nmol/min/mg | 
3 | B3 |  |  |  |  | approximately 2,160 U/mg protein
4 | B4 |  | < 0.1 nmol/min/mg |  | 3.3 nmol/min/mg | 
